Data reported in article PMC10954734, “Structure of antiviral drug bulevirtide bound to hepatitis B and D virus receptor protein NTCP” (Nature Communications, 2024).

Target: T1, complex of detergent-solubilized, biotinylated NTCP and BLV (Homo sapiens NTCP; bulevirtide from …)
T1 construct: also called NTCP-BLV complex; source: BLV: provided peptide; not shown: Avi-tag, C-terminal, kept; eYFP, C-terminal, cleaved; rho-1D4, C-terminal, cleaved
Assay: ELISA; multipoint ELISA at 4 C; 40 nM biotinylated NTCP immobilised on a neutravidin-coated plate in the presence of BLV, serial dilutions of purified Fab for 20 min, detection with HRP-conjugated protein L; EC50 from a sigmoidal dose-response fit; apparent
Conditions: both partners purified

B1: Fab3 (Fab, V domains shown)
VH: EVQLVESGGGLVQPGGSLRLSCAASGFNVSSSYIHWVRQAPGKGLEWVASISPYYSYTSYADSVKGRFTISADTSKNTAYLQMNSLRAEDTAVYYCARYQYDYYYSYYAGLDYWGQGTLVTVSS
VL: DIQMTQSPSSLSASVGDRVTITCRASQSVSSAVAWYQQKPGKAPKLLIYSASSLYSGVPSRFSGSRSGTDFTLTISSLQPEDFATYYCQQYRYSLITFGQGTKVEIK
notes: also called Fab specific to the NTCP-BLV complex
- Kd: 8 nM
